This passage reports Kd and IC50 results from the Immune Epitope Database (IEDB).

One assay has as its target HLA-C*04:01. Description: IEDB peptide-MHC binding, purified MHC/competitive/fluorescence; filed as Kd, often an IC50 or EC50 that approximates it; ≥ and ≤ were set here for values at or beyond the usual limits of such assays. To be noted: source organism: Burkholderia pseudomallei S13.
The target in a further assay is HLA-A*23:01. The description is as above. To be noted: source organism: Burkholderia pseudomallei S13.
The next assay deals with HLA-B*45:06. The assay is described as above. To be noted: source organism: Burkholderia pseudomallei S13.
Another assay has as its target HLA-B*15:42. Described as above. To be noted: source organism: Burkholderia pseudomallei S13.
The next assay deals with HLA-B*83:01. The description is as above. To be noted: source organism: Burkholderia pseudomallei S13.
Another assay deals with HLA-B*15:01. Description: IEDB peptide-MHC binding, purified MHC/direct/fluorescence; filed as Kd, often an IC50 or EC50 that approximates it; ≥ and ≤ were set here for values at or beyond the usual limits of such assays.
In another assay the target is HLA-A*03:01. The assay is described as above.
Another assay concerns the target HLA-A*69:01. The assay is described as above.
The target of a further assay is HLA-A*68:02. The assay is described as above.
In another assay the target is HLA-B*51:01. Described as above.
For a further assay, the target named is HLA-A*02:12. The description is as above.
The next assay has as its target HLA-B*46:01. The description is as above.
Assay [1] has as its target HLA-A*02:03. Described as above. To be noted: source organism: Burkholderia mallei ATCC 23344.
In the next assay the target is HLA-A*02:19. Described as above.
The next assay concerns the target HLA-A*26:01. The assay is described as above.
A further assay concerns the target HLA-A*02:16. Described as above.
Another assay addresses HLA-A*24:03. Described as above. To be noted: source organism: Burkholderia mallei ATCC 23344.
The target of another assay is HLA-B*27:03. The description is as above.
In another assay the target is HLA-A*02:11. Described as above.
The target of another assay is HLA-B*39:01. The assay is described as above.
In a further assay the target is HLA-B*18:01. Described as above.
The next assay concerns the target HLA-A*02:01. Described as above.
For assay [2], the target named is HLA-B*73:01. Put plainly: IEDB peptide-MHC binding, purified MHC/competitive/fluorescence; filed as Kd, often an IC50 or EC50 that approximates it; ≥ and ≤ were set here for values at or beyond the usual limits of such assays. To be noted: source organism: Escherichia coli O157:H7 str. Sakai.
The target in the next assay is HLA-A*68:01. Description: IEDB peptide-MHC binding, purified MHC/competitive/radioactivity; ≥ and ≤ were set here for values at or beyond the usual limits of such assays. To be noted: source organism: Hepacivirus hominis.
The next assay addresses HLA-B*57:01. Put plainly: IEDB peptide-MHC binding, purified MHC/direct/fluorescence; filed as Kd, often an IC50 or EC50 that approximates it; ≥ and ≤ were set here for values at or beyond the usual limits of such assays.
The target in assay [3] is HLA-B*48:01. Described as above. To be noted: source organism: Brucella abortus 2308.
In a further assay the target is HLA-A*01:01. The assay is described as above. To be noted: source organism: Brucella abortus 2308.
The target in assay [4] is HLA-B*73:01. Described as above. To be noted: source organism: Brucella suis 1330.
In the next assay the target is HLA-B*27:05. The description is as above. To be noted: source organism: Brucella abortus 2308.
Another assay deals with HLA-B*15:17. The description is as above. To be noted: source organism: Brucella abortus 2308.
Another assay has as its target HLA-B*08:01. The description is as above. To be noted: source organism: Brucella suis 1330.
The next assay deals with HLA-B*58:01. Described as above. To be noted: source organism: Brucella abortus 2308.
The next assay concerns the target HLA-B*07:02. Described as above. To be noted: source organism: Brucella abortus 2308.
The target in another assay is HLA-A*31:01. Description: IEDB peptide-MHC binding, purified MHC/competitive/fluorescence; filed as Kd, often an IC50 or EC50 that approximates it; ≥ and ≤ were set here for values at or beyond the usual limits of such assays. To be noted: source organism: Brucella abortus S19.
The target of assay [5] is HLA-A*02:03. Described as above. To be noted: source organism: Brucella abortus S19.
In a further assay the target is HLA-A*26:03. Described as above. To be noted: source organism: Brucella abortus S19.
The next assay has as its target HLA-A*11:01. The assay is described as above. To be noted: source organism: Brucella abortus S19.
The target in assay [6] is HLA-B*48:01. Described as above. To be noted: source organism: Mycobacterium tuberculosis variant bovis BCG str. Pasteur 1173P2.
Another assay addresses HLA-A*24:02. Put plainly: IEDB peptide-MHC binding, cellular MHC/competitive/fluorescence; ≥ and ≤ were set here for values at or beyond the usual limits of such assays. To be noted: source organism: Human herpesvirus 5 strain AD169.
The mark [7] stands for this setting: source organism: Burkholderia mallei ATCC 23344.
Where [8] appears, read: source organism: Mycobacterium tuberculosis str. Haarlem.
The mark [9] stands for this setting: source organism: Brucella abortus 2308.

Where only a bound is given, the exact number is not on record here.

For the sequence GFYLSGHLF, the dissociation constant (Kd) in the assay with HLA-C*04:01 was at least 5 µM; with HLA-A*23:01 it was at most 0.0001 µM; in the assay with HLA-B*45:06 it was at least 5 µM; in the assay with HLA-B*15:42 it was at least 5 µM; in the assay with HLA-B*83:01 it was at least 5 µM.

With LARFPCNVI, the Kd with HLA-B*15:01 (setting [7]) was at least 20 µM; with HLA-A*03:01 (setting [7]), at least 20 µM; with HLA-A*69:01 (setting [7]), at least 20 µM; in the assay with HLA-A*68:02 (setting [7]), at least 20 µM; with HLA-B*51:01 (setting [7]), 0.606 µM; with HLA-A*02:12 (setting [7]), at least 20 µM. In addition, the Kd in the assay with HLA-B*46:01 (setting [7]), with HLA-A*02:03 [1], in the assay with HLA-A*02:19 (setting [7]), with HLA-A*26:01 (setting [7]), with HLA-A*02:16 (setting [7]) and in the assay with HLA-A*24:03 was at least 20 µM each time. Besides, the Kd in the assay with HLA-B*27:03 (setting [7]), with HLA-A*02:11 (setting [7]), with HLA-B*39:01 (setting [7]), with HLA-B*18:01 (setting [7]) and with HLA-A*02:01 (setting [7]) was at least 20 µM in each case.

NEWYVQPQA displayed a dissociation constant Kd with HLA-B*73:01 [2] of 0.0673 µM.

QLFTFSPRR: the half-maximal inhibitory concentration (IC50) with HLA-A*68:01 was found to be 0.0026 µM.

On to RLGWRTLDF, for which the dissociation constant Kd with HLA-A*03:01 (setting [8]), with HLA-B*51:01 (setting [8]), with HLA-A*02:12 (setting [8]), with HLA-B*46:01 (setting [8]), in the assay with HLA-A*02:19 (setting [8]) and with HLA-A*26:01 (setting [8]) was at least 20 µM in each case. Moreover, the Kd with HLA-A*02:16 (setting [8]), with HLA-B*57:01 (setting [8]), with HLA-B*27:03 (setting [8]), with HLA-A*02:11 (setting [8]), with HLA-B*39:01 (setting [8]) and in the assay with HLA-B*18:01 (setting [8]) was at least 20 µM each time. Further, the Kd in the assay with HLA-A*02:01 (setting [8]) was at least 20 µM.

RMIESRMSK: the Kd was 0.341 µM with HLA-B*15:01 (setting [9]); 0.131 µM with HLA-A*03:01 (setting [9]); at least 20 µM with HLA-A*69:01 (setting [9]); at least 20 µM in the assay with HLA-B*48:01 [3]; at least 20 µM with HLA-A*68:02 (setting [9]); at least 20 µM with HLA-A*01:01. The dissociation constant Kd in the assay with HLA-B*73:01 [4] is at least 20 µM; with HLA-B*27:05, 0.0525 µM; with HLA-B*15:17, at least 20 µM; with HLA-B*08:01, at least 20 µM; with HLA-B*57:01 (setting [9]), at least 20 µM; with HLA-B*58:01 it was at least 20 µM. For the same sequence, the dissociation constant (Kd) with HLA-B*39:01 (source organism: Brucella suis 1330) is at least 20 µM; with HLA-B*07:02, at least 20 µM; with HLA-B*18:01 (setting [9]) it was at least 20 µM; with HLA-A*02:01 (setting [9]) it was at least 20 µM; with HLA-A*31:01, 0.0607 µM; with HLA-A*02:03 [5] it was at least 20 µM. For the same sequence, the values for the equilibrium dissociation constant (Kd) in the assay with HLA-A*26:03 and with HLA-A*11:01 were at least 20 µM and 0.0055 µM, respectively.

RMVIGGVAL had a dissociation constant Kd with HLA-B*48:01 [6] of 0.0681 µM.

Take VYYTSAFVF: the IC50 with HLA-A*24:02 stood at 35 µM.
